Molecular target: myc-tagged LIMP-2
Assay: cell-based or functional assay

wild-type β-glucocerebrosidase (GC), human, overexpressed in cells (from UniProt P04062 40-536) (enzyme)
post-ER form of GC (EndoH resistance) on co-expression of LIMP-2: 10 fold

— US20170258870A1
